Source: patent US20240409645A1 (DUALYX, published 2024)

T1: human IL-2 receptor (IL-2Rα/IL-2Rβ/γc) (human, UniProt P01589 22-272; P14784 27-551; P31785 23-369)
T1 sequence 1: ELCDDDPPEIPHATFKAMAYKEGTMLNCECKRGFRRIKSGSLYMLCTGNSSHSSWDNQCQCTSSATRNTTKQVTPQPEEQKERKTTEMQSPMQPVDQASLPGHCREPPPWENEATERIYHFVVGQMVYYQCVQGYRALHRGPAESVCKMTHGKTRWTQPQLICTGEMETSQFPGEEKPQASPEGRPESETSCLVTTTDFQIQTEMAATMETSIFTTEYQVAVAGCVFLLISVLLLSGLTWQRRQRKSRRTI
T1 sequence 2: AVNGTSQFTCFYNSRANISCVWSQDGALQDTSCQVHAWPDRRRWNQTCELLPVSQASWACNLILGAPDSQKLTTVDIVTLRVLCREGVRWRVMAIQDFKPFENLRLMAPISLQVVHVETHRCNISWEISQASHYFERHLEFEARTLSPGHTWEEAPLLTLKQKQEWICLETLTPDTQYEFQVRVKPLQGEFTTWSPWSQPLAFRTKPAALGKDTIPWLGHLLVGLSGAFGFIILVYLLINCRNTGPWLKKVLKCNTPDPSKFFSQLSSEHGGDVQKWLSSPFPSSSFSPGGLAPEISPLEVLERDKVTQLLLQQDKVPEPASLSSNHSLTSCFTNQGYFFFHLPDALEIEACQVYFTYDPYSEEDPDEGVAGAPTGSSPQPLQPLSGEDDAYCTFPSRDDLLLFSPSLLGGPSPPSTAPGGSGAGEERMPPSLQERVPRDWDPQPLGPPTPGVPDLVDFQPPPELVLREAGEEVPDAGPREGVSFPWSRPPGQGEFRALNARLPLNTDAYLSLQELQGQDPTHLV
T1 sequence 3: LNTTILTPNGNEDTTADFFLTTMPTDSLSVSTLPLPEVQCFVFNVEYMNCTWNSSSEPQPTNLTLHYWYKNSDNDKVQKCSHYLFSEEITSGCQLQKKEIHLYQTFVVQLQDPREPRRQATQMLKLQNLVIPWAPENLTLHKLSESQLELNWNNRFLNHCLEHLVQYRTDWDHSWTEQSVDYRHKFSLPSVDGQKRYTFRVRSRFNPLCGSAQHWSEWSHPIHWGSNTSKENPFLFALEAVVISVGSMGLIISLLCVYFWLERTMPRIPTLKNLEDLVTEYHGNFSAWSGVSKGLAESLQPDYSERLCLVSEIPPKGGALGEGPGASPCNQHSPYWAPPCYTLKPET

B1: DC00044 (other)
chain 1: QVQLVESGGGLVQPGGSLRLSCATSGFTFRNNFMSWVRQAPGKGLEWVSTISYGGESTTYAESVKGRFTISRDNAKNTLYLQMNNLKPEDTAVYYCAKATSYDSIRSGSRGQGTQVTVSSDKTHTCPPCPAPEAAGGPSVFLFPPKPKDTLMISRTPEVTCVVVDVSHEDPEVKFNWYVDGVEVHNAKTKPREEQYNSTYRVVSVLTVLHQDWLNGKEYKCKVSNKALGAPIEKTISKAKGQPREPQVYTLPPSRDELTKNQVSLTCLVKGFYPSDIAVEWESNGQPENNYKTTPPVLDSDGSFLLYSKLTVDKSRWQQGNVFSCSVMHEALHNHYTQKSLSLSPGK
chain 2: QVQLVESGGGLVQAGGSLTLSCAAPGRTFGTDVVGWFRQAPGKEREFVASISRSGDGIYYDDSVKGRFTISRNNAWNTVNLQMNSLKVEDTAVYYCAAGDGWSTYDYWGQGTQVTVSSGGGGSGGGGSGGGGSEVQLVESGGGLVQTGGSLRLSCAASGGTFSRDAMAWFRQVPGKEREFVALISWSGATTNYADSVKGRFAISRDNGKNTVYLQMNRLKPADTAIYYCAADRRPMGSRSYFEPTEYDDWGQGTQVTVSSGGGGSGGGGSGGGGSQVQLVESGGGLVQPGGSLRLSCATSGFTFRNNFMSWVRQAPGKGLEWVSTISYGGESTTYAESVKGRFTISRDNAKNTLYLQMNNLKPEDTAVYYCAKATSYDSIRSGSRGQGTQVTVSSDKTHTCPPCPAPEAAGGPSVFLFPPKPKDTLMISRTPEVTCVVVDVSHEDPEVKFNWYVDGVEVHNAKTKPREEQYNSTYRVVSVLTVLHQDWLNGKEYKCKVSNKALGAPIEKTISKAKGQPREPQVYTLPPSRDELTKNQVSLTCLVKGFYPSDIAVEWESNGQPENNYKTTPPVLDSDGSFFLYSRLTVDKSRWQQGNVFSCSVMHEALHNHYTQKSLSLSPGK
B2: DC00045 (other)
chain 1: B1 chain 1
chain 2: QVQLVESGGGLVQAGGSLTLSCAAPGRTFGTDVVGWFRQAPGKEREFVASISRSGDGIYYDDSVKGRFTISRNNAWNTVNLQMNSLKVEDTAVYYCAAGDGWSTYDYWGQGTQVTVSSGGGGSGGGGSGGGGSQVQLVESGGGLVQPGGSLRLSCATSGFTFRNNFMSWVRQAPGKGLEWVSTISYGGESTTYAESVKGRFTISRDNAKNTLYLQMNNLKPEDTAVYYCAKATSYDSIRSGSRGQGTQVTVSSGGGGSGGGGSGGGGSEVQLVESGGGLVQTGGSLRLSCAASGGTFSRDAMAWFRQVPGKEREFVALISWSGATTNYADSVKGRFAISRDNGKNTVYLQMNRLKPADTAIYYCAADRRPMGSRSYFEPTEYDDWGQGTQVTVSSGGGGSGGGGSGGGGSDKTHTCPPCPAPEAAGGPSVFLFPPKPKDTLMISRTPEVTCVVVDVSHEDPEVKFNWYVDGVEVHNAKTKPREEQYNSTYRVVSVLTVLHQDWLNGKEYKCKVSNKALGAPIEKTISKAKGQPREPQVYTLPPSRDELTKNQVSLTCLVKGFYPSDIAVEWESNGQPENNYKTTPPVLDSDGSFFLYSRLTVDKSRWQQGNVFSCSVMHEALHNHYTQKSLSLSPGK
B3: DC00046 (other)
chain 1: QVQLVESGGGLVQPGGSLRLSCATSGFTFRNNFMSWVRQAPGKGLEWVSTISYGGESTTYAESVKGRFTISRDNAKNTLYLQMNNLKPEDTAVYYCAKATSYDSIRSGSRGQGTQVTVSSGGGGSGGGGSGGGGSQVQLVESGGGLVQPGGSLRLSCATSGFTFRNNFMSWVRQAPGKGLEWVSTISYGGESTTYAESVKGRFTISRDNAKNTLYLQMNNLKPEDTAVYYCAKATSYDSIRSGSRGQGTQVTVSSDKTHTCPPCPAPEAAGGPSVFLFPPKPKDTLMISRTPEVTCVVVDVSHEDPEVKFNWYVDGVEVHNAKTKPREEQYNSTYRVVSVLTVLHQDWLNGKEYKCKVSNKALGAPIEKTISKAKGQPREPQVYTLPPSRDELTKNQVSLTCLVKGFYPSDIAVEWESNGQPENNYKTTPPVLDSDGSFLLYSKLTVDKSRWQQGNVFSCSVMHEALHNHYTQKSLSLSPGK
chain 2: EVQLVESGGGLVQTGGSLRLSCAASGGTFSRDAMAWFRQVPGKEREFVALISWSGATTNYADSVKGRFAISRDNGKNTVYLQMNRLKPADTAIYYCAADRRPMGSRSYFEPTEYDDWGQGTQVTVSSGGGGSGGGGSGGGGSQVQLVESGGGLVQPGGSLRLSCATSGFTFRNNFMSWVRQAPGKGLEWVSTISYGGESTTYAESVKGRFTISRDNAKNTLYLQMNNLKPEDTAVYYCAKATSYDSIRSGSRGQGTQVTVSSGGGGSGGGGSGGGGSQVQLVESGGGLVQAGGSLTLSCAAPGRTFGTDVVGWFRQAPGKEREFVASISRSGDGIYYDDSVKGRFTISRNNAWNTVNLQMNSLKVEDTAVYYCAAGDGWSTYDYWGQGTQVTVSSGGGGSGGGGSGGGGSDKTHTCPPCPAPEAAGGPSVFLFPPKPKDTLMISRTPEVTCVVVDVSHEDPEVKFNWYVDGVEVHNAKTKPREEQYNSTYRVVSVLTVLHQDWLNGKEYKCKVSNKALGAPIEKTISKAKGQPREPQVYTLPPSRDELTKNQVSLTCLVKGFYPSDIAVEWESNGQPENNYKTTPPVLDSDGSFFLYSRLTVDKSRWQQGNVFSCSVMHEALHNHYTQKSLSLSPGK
B4: DC00048 (other)
chain 1: B3 chain 1
chain 2: QVQLVESGGGLVQPGGSLRLSCATSGFTFRNNFMSWVRQAPGKGLEWVSTISYGGESTTYAESVKGRFTISRDNAKNTLYLQMNNLKPEDTAVYYCAKATSYDSIRSGSRGQGTQVTVSSGGGGSGGGGSGGGGSQVQLVESGGGLVQAGGSLTLSCAAPGRTFGTDVVGWFRQAPGKEREFVASISRSGDGIYYDDSVKGRFTISRNNAWNTVNLQMNSLKVEDTAVYYCAAGDGWSTYDYWGQGTQVTVSSGGGGSGGGGSGGGGSEVQLVESGGGLVQTGGSLRLSCAASGGTFSRDAMAWFRQVPGKEREFVALISWSGATTNYADSVKGRFAISRDNGKNTVYLQMNRLKPADTAIYYCAADRRPMGSRSYFEPTEYDDWGQGTQVTVSSGGGGSGGGGSGGGGSDKTHTCPPCPAPEAAGGPSVFLFPPKPKDTLMISRTPEVTCVVVDVSHEDPEVKFNWYVDGVEVHNAKTKPREEQYNSTYRVVSVLTVLHQDWLNGKEYKCKVSNKALGAPIEKTISKAKGQPREPQVYTLPPSRDELTKNQVSLTCLVKGFYPSDIAVEWESNGQPENNYKTTPPVLDSDGSFFLYSRLTVDKSRWQQGNVFSCSVMHEALHNHYTQKSLSLSPGK
B5: DC00049 (other)
chain 1: B3 chain 1
chain 2: QVQLVESGGGLVQAGGSLTLSCAAPGRTFGTDVVGWFRQAPGKEREFVASISRSGDGIYYDDSVKGRFTISRNNAWNTVNLQMNSLKVEDTAVYYCAAGDGWSTYDYWGQGTQVTVSSGGGGSGGGGSGGGGSEVQLVESGGGLVQTGGSLRLSCAASGGTFSRDAMAWFRQVPGKEREFVALISWSGATTNYADSVKGRFAISRDNGKNTVYLQMNRLKPADTAIYYCAADRRPMGSRSYFEPTEYDDWGQGTQVTVSSGGGGSGGGGSGGGGSDKTHTCPPCPAPEAAGGPSVFLFPPKPKDTLMISRTPEVTCVVVDVSHEDPEVKFNWYVDGVEVHNAKTKPREEQYNSTYRVVSVLTVLHQDWLNGKEYKCKVSNKALGAPIEKTISKAKGQPREPQVYTLPPSRDELTKNQVSLTCLVKGFYPSDIAVEWESNGQPENNYKTTPPVLDSDGSFFLYSRLTVDKSRWQQGNVFSCSVMHEALHNHYTQKSLSLSPGK
B6: DC00047 (other)
chain 1: B3 chain 1
chain 2: EVQLVESGGGLVQTGGSLRLSCAASGGTFSRDAMAWFRQVPGKEREFVALISWSGATTNYADSVKGRFAISRDNGKNTVYLQMNRLKPADTAIYYCAADRRPMGSRSYFEPTEYDDWGQGTQVTVSSGGGGSGGGGSGGGGSQVQLVESGGGLVQAGGSLTLSCAAPGRTFGTDVVGWFRQAPGKEREFVASISRSGDGIYYDDSVKGRFTISRNNAWNTVNLQMNSLKVEDTAVYYCAAGDGWSTYDYWGQGTQVTVSSGGGGSGGGGSGGGGSDKTHTCPPCPAPEAAGGPSVFLFPPKPKDTLMISRTPEVTCVVVDVSHEDPEVKFNWYVDGVEVHNAKTKPREEQYNSTYRVVSVLTVLHQDWLNGKEYKCKVSNKALGAPIEKTISKAKGQPREPQVYTLPPSRDELTKNQVSLTCLVKGFYPSDIAVEWESNGQPENNYKTTPPVLDSDGSFFLYSRLTVDKSRWQQGNVFSCSVMHEALHNHYTQKSLSLSPGK

The binders below were run against T1, human IL-2 receptor (IL-2Rα/IL-2Rβ/γc) (assay: cell-based or functional assay).

| Binder | EC50 (nM) pSTAT5, NK, human PBMCs [nM] | EC50 (nM) pSTAT5, Treg, human PBMCs | Fold Max signal (% pSTAT5+) Treg/NK [fold] | Max signal (% pSTAT5+), NK [% pSTAT5+] | Max signal (% pSTAT5+), Treg [% pSTAT5+] | fold EC50 NK/Treg [fold] |
| --- | --- | --- | --- | --- | --- | --- |
| B1 | 0.442 | < 0.1 pM | 5 | 20 | 96 | > 4420 |
| B2 | 0.0573 | 0.151 pM | 12 | 7 | 88 | 379 |
| B3 | – | – | 4 | 6 | 25 | – |
| B4 | 0.176 | < 0.1 pM | 4 | 26 | 95 | > 1760 |
| B5 | 0.198 | 0.00336 nM | 4 | 27 | 95 | 59 |
| B6 | – | – | 1 | 0 | 0 | – |
